Assay: soluble on expression in E. coli; label from the status in PepcDB or PDB records

Sequence | soluble on expression in E. coli
GQHTLKQFAADSALTTTTPLCSEVPLFDINALGDWTYLGTSLPAKFAKLFASILHCIDDEYFLITPVEKVRVQVEDAPLLIVDFERAQPHSLLNVSTSIGTLHHNVDIKQMKLTDDSVYLPLERGLWGKLGRACYYNFVNEFNLSDLNEQ | soluble
MRHAKSAYPDGIADHDRPLAPRGIREAGLAGGWLRANLPAVDAVLCSTATRARQTLAHTGIDAPARYAERLYGAAPGTVIEEINRVGDNVTTLLVVGHEPTTSALAIVLASISGTDAAVAERISEKFPTSGIAVLRVAGHWADVEPGCAALVGFHVPR | soluble
MAESDWDTVTVLRKKGPTAAQAKSKQAILAAQRRGEDVETSKKWAAGQNKQHSITKNTAKLDRETEELHHDRVTLEVGKVIQQGRQSKGLTQKDLATKINEKPQVIADYESGRAIPNNQVLGKIERAIGLKLRGKDIGKPIEKGPRAK | not soluble
THANIQGLVKHVDYMAFSDQDTFLSVSNYAFDAFTFDFYASMLNAARLIIADEHTLLDTERLTDLILQENVNVMFATTALFNLLTDAGEDWMKGLRCILFGGERASVPHVRKALRIMGPGKLINCYGPTEGTVFATAHVVHDLPDSISSLPIGKPISN | not soluble
MGSDKIHHHHHHMSWEISGTYVGSCTCQLICPCPVDGLPTGPDGECRGLNVFHIASGKMDDTDLSGVDFAFANWFPSHLTAGGWKVGAVVDDAASDAQVRALGSILRGEAGGPFGDLAALYGEWLGLERAGVKFSGGDTPAGSVADRVVITFEPLPGPDGGVTTVKNAMYGFAPEFQIGKGTGHPDLFGLAFDGVYGETSDFSFASEMAEGAPKGRG | not soluble
MMTADAGICRPFKTKPARTIFGRFPARTVCLCASAIWTAAKSRCGWTAGVPSSLPTLPHPANAIPPNTVCSETQPSGTRKAAKPFSALPMPTAIRSKLPAAPVKRGSLFEPPSRFFGRFFVSDGRFFVSDLFCSSASGRVRAA | not soluble
MGGSHHHHHHGMASALETNYLKRCFGNCLAQALAEVAKVRPSDPIEYLAHWLYHYRKTAKAKEENREKKIHLQEEYDSSLKEMEMTEMLKQEEYQIQQNCEKCHKELTSETVSTKKTIFMQEDTNPLEKEALKQEFLPGTSSLIPGMPQQVPPSESAGQIDQNFKMPQEINYKEAFQHEVAHEMPPGSKSPF | not soluble
MSSKLVLVLNCGSSSLKFAIIDAVNGEEYLSGLAECFHLPEARIKWKMDGNKQEAALGAGAAHSEALNFIVNTILAQKPELSAQLTAIGHRIVHGGEKYTSSVVIDESVIQGIKDAASFAPLHNPAHLIGIEEALKSFPQLKDKNVAVFDTAFHQTMPEESYLYALPYNLYKEHGIRRYGAHGTSHFYVTQEAAKMLNKPVEELNIITCHLGNGGSVSAIRNGKCVDTSMGLTPLEGLVMGTRSGDIDPAIIFHLHDTLGMSVDAINKLLTKESGLLGLTEVTSDCRYVEDNYATKEDAKRAMDVYCHRLAKYIGAYTALMDGRLDAVVFTGGIGENAAMVRELSLGKLGVLGFEVDHERNLAARFGKSGFINKEGTRPAVVIPTNEELVIAQDASRLTA | soluble
MTFKSATGSGQQGGSSGTSAGNPDSLKQDKISKSGDSLSVVDTGQGDDTHYANLPPSITPTSDPNALSFTNKNNAQRVQLFLRGLLDSIPVLVNKSGQDDLEHHHHHH | not soluble
MLTLAEKLLLIGLNDETGKVHYQASTALPYGLAGAVLADLMLLGKVELQGKNIVVVDPKPVGQPIFDKALHIINKTPRKRNAKYWVQRLKRDLKTLRQDVLTLLIEQGILKEEKRKILGLFETRTYPAVDGEMEEQVKEKLRVLVLQPTEIEENKELAQERTLVLLSLVNACDLLRQVFDRQEARVVKKQVKHLTKDVPVSKAVKEMVDAINASVVLAITSAAVVTSSSSSSNLEHHHHHH | soluble
MAAEFVRKFQSFSESDKQWRAREEFIIRNLNRFEDESEIDQLLALSMVWANHVFMGCRYSNELLEKVCGMAEGIVVEDAPHFTTRDEIMKQRNQ | soluble
MAHHHHHHMSHTFTDPLVDLASVSFQYPHGGGGSAGGIRDVSVRVNGGDRVLVVGHNGSGKSTLLSVIAGRRKASSGRATVLGSDAFDDTRLQQHVTLIGRPWPTEAFFATTVDQVTSQAPLPERKRSVADALHLDLGRAVSNMSSGERRRVQILHGLLQKSFVYLLDECSTDIDIAERMTVLDLVRSECVVGDSCCLYATHIFDGVSDWATHLLLMQGGMVVDFKRVSDLNAPLEVFVCHFLTRRHRGLFDHTSKRTPVKDAYNDDWKGGGTVTALPLEKEAVIVCDRLQYRNIFRNLSFTVYRGDRVLLCGCNGAGKSTLLKMMGGKQFFNNCNGSLRILGKSCYDDMTLNGLVAFGGEWWDTAPPGEMHVHEMLQLQTPRAEWLCKVLGVDLSWDVRHISTGEQKHVQLLLHLLEDKPVILLDEATSDLDLDQRQELLSFLYSESVNRGVTVVYATHIFGGLENWPTAVMMLDRTTQGLHAMWCGSDVKWAEVTRELIALK | not soluble
MGHHHHHHSHMEEKFEDRSPAAECLSEKETEELMAWMRNVLGSRVTNVKVTLRLDTHPAMVTVLEMGAARHFLRMQQLAKTQEERAQLLQPTLEINPRHALIKKLNQLRASEPGLAQLLVDQIYENAMIAAGLVDDPRAMVGRLNELLVKALERH | soluble
MSEKEIWDKVLEIAQERISNTSYQTFIKDTQLYSLKNDEAIILVSLPFNASWLNQRYSEIMQAIIYDVIGYEVKPHFISEDELASYNNVNTQEVQEPQVQHSSIDDKTWGKEQFNMHNTFDTFVIGPGNRFPHAASLAVAEAPAEAYNPLFIYGGVGLGKTHLMHAIGHHVLSNKPNAKVIYTSSEKFTNEFIKSIRDNETEAFREKYRKIDVLLIDDIQFIQNKEQTQEEFFHTFNELHQNNKQIVISSDRPPKEIAKLEDRLRSRFEWGLIVDITPPDYETRMAILQKKIEEENLDIPPEALNYIANQIQSNIRELEGALTRLLAYSKLQGKPITTELTAEALKDIIQSPKSKKITIQDIQKVVGQYYSVRIEDFSAKKRTKSIAYPRQIAMYLSRELTDFSLPKIGEEFGGRDHTTVIHAHEKIANDIKSDPTFKQEVENLEKEIRNQLEHHHHHH | not soluble
MAHHHHHHMSNPWNAKLVEELLFRQYEKGEDVSMLLPPPPALSVDQYLKEYEQSTKVLFAYVRNGPANALTPQNINNPRMYGGTPTKGSSSMQRTGNQGGATCATTSSSSACGVDSKAQMQRHPRGLDGSQSAAPSLPLTAGDAAAGQGSMAPPEHIRKRIEWPATVPTNSALKSNSRSRVANLTTKRVAAQERVDPDLIFMQNPEELPLHTIFAKYPKAVESIAALRGGSGDWREDTFTEEEEILYKRELRYSHMGPSQCGFFRSNLIQR | not soluble
MTTIASFPILQLPEKSLKIAIQSLTLEELIKFSLISKSTKRAAESLNLQADPFCDLY | not soluble
MGHHHHHHSHATGNVCIEEIDVDGKFIRLKNTSEQDQPMGGWEMIRKIGDTSVSYKYTSRYVLKAGQTVTIWAANAGVTASPPTDLIWKNQNSWGTGEDVKVILKNSQGEEVAQRSTVFKT | not soluble
MKKVGKSTFKFENCPIISDCFTIVGKKEGEGPLGLFFDMVVEDEYAGQKSWELAEGKLLNIAISKLIQKSGFTPDEVDLILSGDLLNQLTSSHFAARDLNIPFIGLYGACSTFALSVGLACVFVDGGFAKNIIAATSSHFCSAEKQFRYPLELGCQRPPTAQWTVTGAASFLIKPEDGTQKPKITHFTVGKILDYGIKDSNNMGACMAPAAFDTITTHLEDTKRDFTYYDIIVTGDLGYVGRKLLEELFKKEGKTLSFELLDCGILMFDQKTQDTGAGASGCAASACIFGGYFYKLMLQKTFKRILIVPTGALLSSSTVQLGESIPVIAHALSIEIELEHHHHHH | not soluble
MKTWLPTSTAGSLPKPSWLAQPETLWSPWKLSSEELLAGKRDALRLSLDDQLRAGIDIVSDGEQTRQHFVTTFIEHLSGVDFAKREIVKIRNRYEASVPTVVGAVERQKPVFVEDARYLRQLTSQPIKWALPGPMTMIDTLYDNHYKSREKLAWEFAKILNQEAKELEAAGVDIIQFDEPAFNVFFDEVNDWGIAALERATEGLKCETAVHICYGYGIKANTDWKKTLGSEWRQYEEAFPQLQKSSLDIISLECHNSRVPMDLLELIRGKKVMVGAIDVASHAIETPEEVAGTLRKALAFVDADKLYPSTNCGMAPLPRHVATGKLHALSAGAEIIRRELAAK | not soluble
MGHHHHHHGSTTQRNAQIAMGRKKFNMDPKKGIQFLIENDLLQSSPEDVAQFLYKGEGLNKTVIGDYLGERDDFNIKVLQAFVELHEFADLNLVQALRQFLWSFRLPGEAQKIDRMMEAFASRYCLCNPGVFQSTDTCYVLSFAIIMLNTSLHNHNVRDKPTAERFITMNRGINEGGDLPEELLRNLYESIKNEPFKIPEDDGNDLTHTFFNPDREGWLLKLGGRVKTWKRRWFILTDNCLYYFEYTTDKEPRGIIPLENLSIREVEDPRKPNCFELYNPSHKGQVIKACKTEADGRVVEGNHVVYRISAPSPEEKEEWMKSIKASISRDPFYDMLATRKRRIANKK | soluble
MGSDKIHHHHHHMTVELLNEPLSRYPAFDTADPEELRQALSSVYGAKLVEGPIAADFHARSNFVQLDDIALAFGVGTGSIAVEFPEGECARLQIALSGQFTTRSGGTSTAINARQAGIISPGRNARTEYGQNYSFTLLRVSTSALERKLTTLLGCKPKASLEFEPAANNEAPQVVNLRRMLCFLANQLNCSPLPPVVLAELQEAITLLFLSAFRHNYSRQLERESHGIAPKHVRQVEEYIEANWMRPITIEKLTALTGISSRGIFKAFQRSRGYSPMAFAKRVRLQHAHNLLSDGATPTTVTAAALSCGFSNLGHFARDYRDMFGEKPSETLQRARP | not soluble
SNAMSKQLLALNIDGALLRSNGKIHQATKDAIEYVKKKGIYVTLVTNRHFRSAQKIAKSLKLDAKLITHSGAYIAEKIDAPFFEKRISDDHTFNIVQVLESYQCNIRLLHEKYSIGNKKKVNSNLLGKALIHPSDPIFYPVQFVESLSDLLMDEPVSAPVIEVYTEHDIQHDITETITKAFPAVDVIRVNDEKLNIVPKGVSKEAGLALVASELGLSMDDVVAIGHQYDDLPMIELAGLGVAMGNAVPEIKRKADWVTRSNDEQGVAYMMKEYFRMQQRKGFLDKFHMKR | soluble
VWVSENIERLIGYTPGEALAPGWWLSHLYPDDREQVLERQPILLSDGQLTHDYRFYHRDGRIIWILDELRLIRNADGQPHEVVGTWLDIS | not soluble
MGSDKIHHHHHHMDYRKLPHGNEKVSTIGIGSGSLKETTSKEIEDIVTYSMEEGVNLIDTVMYDTTAAEPINNALKGHRDDMLMQIHLGVWYPKGTYSRTRVPRNVKKGFEQELKKYSTNYADIGLISYVDRVKDFEKIMSNGIFDYAKKLKQDGTIRYLGISSHSEEICKLFIETGEIDVIMFSINAAYDFKPSWGKLNLKNERMELYQECEKQGVALTVMKAYGGGQLLNEKTSPFNHAMTVPQCIQYALDRPGVVSCISGVSSKADLDEALKYYSTSEKDRDYSFIASLPHRDIMGTCIYCNHCQPCPSGIDIGIVNKYLDLAKAGDELAKDHYLKLSKNANDCTNCGVCEKNCPFHVDIRGRMLKAKNYFDKTNSVKK | not soluble
